Laboratory results taken from article PMC4122225 (2014).
One block for each binder: values may come before it.

What was measured:
Experiment in all cases: ELISA
[1] = target: Apolipoprotein E3 (LipoE3) (Homo sapiens, UniProt P02649)
[2] = target: Apolipoprotein E4 (LipoE4) (Homo sapiens, UniProt P02649)
[3] = target: Apolipoprotein E2 (LipoE2) (Homo sapiens, UniProt P02649)
Apolipoprotein E2 (LipoE2), sequence (P02649 19-317): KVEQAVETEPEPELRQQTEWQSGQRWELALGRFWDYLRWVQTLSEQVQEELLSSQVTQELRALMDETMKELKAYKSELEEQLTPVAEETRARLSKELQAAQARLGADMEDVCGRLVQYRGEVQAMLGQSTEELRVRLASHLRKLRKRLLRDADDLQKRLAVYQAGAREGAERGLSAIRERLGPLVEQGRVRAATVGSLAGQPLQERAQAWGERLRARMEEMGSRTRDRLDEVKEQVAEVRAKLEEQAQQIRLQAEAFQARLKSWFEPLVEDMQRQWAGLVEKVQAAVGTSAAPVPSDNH

Apolipoprotein E3 (LipoE3), sequence (P02649 19-317): as above
Apolipoprotein E4 (LipoE4), sequence (P02649 19-317): as above

Kd [1]: 59.6 nM
B1: Haptoglobin (phenotype 1-1) (protein)
chain 1: VDSGNDVTDIADDGCPKPPEIAHGYVEHSVRYQCKNYYKLRTEGDGVYTLNDKKQWINKAVGDKLPECEADDGCPKPPEIAHGYVEHSVRYQCKNYYKLRTEGDGVYTLNNEKQWINKAVGDKLPECEAVCGKPKNPANPVQ
chain 2: ILGGHLDAKGSFPWQAKMVSHHNLTTGATLINEQWLLTTAKNLFLNHSENATAKDIAPTLTLYVGKKQLVEIEKVVLHPNYSQVDIGLIKLKQKVSVNERVMPICLPSKDYAEVGRVGYVSGWGRNANFKFTDHLKYVMLPVADQDQCIRHYEGSTVPEKKTPKSPVGVQPILNEHTFCAGMSKYQEDTCYGDAGSAFAVHDLEEDTWYATGILSFDKSCAVAEYGVYVKVTSIQDWVQKTIAEN
modifications: ApoE3 isoform, lecithin liposome-associated

Kd [2]: 54.9 nM
B2: Haptoglobin (phenotype 1-1) (protein)
chain 1: B1 chain 1
chain 2: B1 chain 2
modifications: ApoE4 isoform, lecithin liposome-associated

Kd [3]: 58.2 nM
B3: Haptoglobin (phenotype 1-1) (protein)
chain 1: B1 chain 1
chain 2: B1 chain 2
modifications: ApoE2 isoform, lecithin liposome-associated
